Results taken from patent US20220289816A1, “IMMUNOTHERAPY WITH B*07 RESTRICTED PEPTIDES AND COMBINATION OF PEPTIDES AGAINST CANCERS AND RELATED METHODS” (Immatics Biotechnologies GmbH, priority 2018, published 2022).

These substances were tested against HLA-B*07 (Homo sapiens, UniProt P01889) (assay: MHC binding assay (UV-ligand exchange, ELISA of stabilized MHC complexes)). Conditions: peptide exchange yield on HLA-B*07, UV-ligand exchange.
Summary of the method: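 Binding is reported as exchange yield: an ELISA with HRP-conjugated anti-β2m (A450, TMB) quantified how much test peptide stabilized MHC after UV cleavage of a photolabile placeholder peptide. Exchange monomers were diluted 100-fold and captured on streptavidin-coated plates for 1 h at 37 °C.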
With “351 (SPYADIIPSA; listed as Homo sapiens) [compound 351]” the Peptide exchange was “+++ (>50 = +++)”.
In the case of “348 (HPAPPVTSA; listed as Homo sapiens) [compound 348]”, the Peptide exchange is reported as “+++ (>50 = +++)”.
“161 (ASKILETSL; listed as Homo sapiens) [compound 161]” was tested, and the Peptide exchange was “++ (>20% = ++)”.
In the case of “232 (TAYPSLRLL; listed as Homo sapiens) [compound 232]”, the Peptide exchange is reported as “+++ (>50 = +++)”.
In the case of “338 (MPATPSLKV; listed as Homo sapiens) [compound 338]”, the Peptide exchange is reported as “+++ (>50 = +++)”.
For “248 (KPYDGIPAS; listed as Homo sapiens) [compound 248]”, the Peptide exchange was “+++ (>50 = +++)”.
With “279 (APADEPRTVL; listed as Homo sapiens) [compound 279]” the Peptide exchange was “+++ (>50 = +++)”.
With “315 (APVVFPAL; listed as Homo sapiens) [compound 315]” the Peptide exchange was “++++ (>75% = ++++)”.
For “331 (SPDSAILKL; listed as Homo sapiens) [compound 331]”, the Peptide exchange was “+++ (>50 = +++)”.
“295 (HPRWIEPTVM; listed as Homo sapiens) [compound 295]” was tested, and the Peptide exchange was “++++ (>75% = ++++)”.
In the case of “473 (LPGEREAAL; listed as Homo sapiens) [compound 473]”, the Peptide exchange is reported as “++++ (>75% = ++++)”.
With “151 (QPTWNTQTRL; listed as Homo sapiens) [compound 151]” the Peptide exchange was “++++ (>75% = ++++)”.
“381 (APRPRLLLL; listed as Homo sapiens) [compound 381]” was tested, and the Peptide exchange was “+++ (>50 = +++)”.
For “223 (KAHVRIEL; listed as Homo sapiens) [compound 223]”, the Peptide exchange was “++ (>20% = ++)”.
With “318 (TPISNTGVL; listed as Homo sapiens) [compound 318]” the Peptide exchange was “++++ (>75% = ++++)”.
In the case of “15 (KPGFNISIL; listed as Homo sapiens) [compound 15]”, the Peptide exchange is reported as “++++ (>75% = ++++)”.
For “251 (MPVDSFNSM; listed as Homo sapiens) [compound 251]”, the Peptide exchange was “++++ (>75% = ++++)”.
With “219 (VPHTGRYTCL; listed as Homo sapiens) [compound 219]” the Peptide exchange was “+++ (>50 = +++)”.
For “60 (RPYSIYPHGVTF; listed as Homo sapiens) [compound 60]”, the Peptide exchange was “++++ (>75% = ++++)”.
“329 (QPANFIVLL; listed as Homo sapiens) [compound 329]” was tested, and the Peptide exchange was “+++ (>50 = +++)”.
In the case of “213 (RPYQDAPVA; listed as Homo sapiens) [compound 213]”, the Peptide exchange is reported as “++++ (>75% = ++++)”.
In the case of “233 (MAYDRFIAI; listed as Homo sapiens) [compound 233]”, the Peptide exchange is reported as “+++ (>50 = +++)”.
In the case of “274 (KPIRTGISPLAL; listed as Homo sapiens) [compound 274]”, the Peptide exchange is reported as “+++ (>50 = +++)”.
For “198 (LPSPAHAFRAL; listed as Homo sapiens) [compound 198]”, the Peptide exchange was “+++ (>50 = +++)”.
“286 (APARPAAAF; listed as Homo sapiens) [compound 286]” was tested, and the Peptide exchange was “++++ (>75% = ++++)”.
With “457 (RPPLSQRHTF; listed as Homo sapiens) [compound 457]” the Peptide exchange was “++++ (>75% = ++++)”.
For “320 (APMHIDRNIL; listed as Homo sapiens) [compound 320]”, the Peptide exchange was “++++ (>75% = ++++)”.
“228 (RPTAASQSRAL; listed as Homo sapiens) [compound 228]” was tested, and the Peptide exchange was “+++ (>50 = +++)”.
With “171 (LPLGGHKSL; listed as Homo sapiens) [compound 171]” the Peptide exchange was “+++ (>50 = +++)”.
For “334 (YPLSLALHF; listed as Homo sapiens) [compound 334]”, the Peptide exchange was “++++ (>75% = ++++)”.
In the case of “294 (VPKPAIPSSSVL; listed as Homo sapiens) [compound 294]”, the Peptide exchange is reported as “++++ (>75% = ++++)”.
“319 (RPLDTFRVL; listed as Homo sapiens) [compound 319]” was tested, and the Peptide exchange was “++++ (>75% = ++++)”.
“83 (AVSSHHNVI; listed as Homo sapiens) [compound 83]” was tested, and the Peptide exchange was “++ (>20% = ++)”.
In the case of “258 (SVIGPNSRL; listed as Homo sapiens) [compound 258]”, the Peptide exchange is reported as “++ (>20% = ++)”.
“87 (APVGGNVTSSF; listed as Homo sapiens) [compound 87]” was tested, and the Peptide exchange was “+++ (>50 = +++)”.
In the case of “43 (APTPRPKVL; listed as Homo sapiens) [compound 43]”, the Peptide exchange is reported as “++++ (>75% = ++++)”.
With “16 (FPAPPAHWF; listed as Homo sapiens) [compound 16]” the Peptide exchange was “++++ (>75% = ++++)”.
In the case of “342 (RPRPPKVL; listed as Homo sapiens) [compound 342]”, the Peptide exchange is reported as “+++ (>50 = +++)”.
With “284 (RPSAPRGPP; listed as Homo sapiens) [compound 284]” the Peptide exchange was “++++ (>75% = ++++)”.
In the case of “474 (VPKADLLTL; listed as Homo sapiens) [compound 474]”, the Peptide exchange is reported as “++++ (>75% = ++++)”.
For “227 (RPGTGQGGL; listed as Homo sapiens) [compound 227]”, the Peptide exchange was “+++ (>50 = +++)”.
In the case of “157 (RPVTGSVC; listed as Homo sapiens) [compound 157]”, the Peptide exchange is reported as “++++ (>75% = ++++)”.
With “180 (RLRDYISSL; listed as Homo sapiens) [compound 180]” the Peptide exchange was “++++ (>75% = ++++)”.
With “193 (LPALKEEAF; listed as Homo sapiens) [compound 193]” the Peptide exchange was “++++ (>75% = ++++)”.
With “483 (KPAAAGVKKVA; listed as Homo sapiens) [compound 483]” the Peptide exchange was “+++ (>50 = +++)”.
With “256 (SPVPSHWMVAL; listed as Homo sapiens) [compound 256]” the Peptide exchange was “++++ (>75% = ++++)”.
In the case of “471 (LPLLAGTLLL; listed as Homo sapiens) [compound 471]”, the Peptide exchange is reported as “++ (>20% = ++)”.
In the case of “30 (YPGFTKRL; listed as Homo sapiens) [compound 30]”, the Peptide exchange is reported as “+++ (>50 = +++)”.
“231 (SPITLQAL; listed as Homo sapiens) [compound 231]” was tested, and the Peptide exchange was “++++ (>75% = ++++)”.
With “167 (NVNPARKGL; listed as Homo sapiens) [compound 167]” the Peptide exchange was “++++ (>75% = ++++)”.
“482 (QPSLKKIIL; listed as Homo sapiens) [compound 482]” was tested, and the Peptide exchange was “++++ (>75% = ++++)”.
“208 (RNRQVATAL; listed as Homo sapiens) [compound 208]” was tested, and the Peptide exchange was “+++ (>50 = +++)”.
With “121 (GPFQRAAL; listed as Homo sapiens) [compound 121]” the Peptide exchange was “+++ (>50 = +++)”.
In the case of “489 (WPNHIMLVL; listed as Homo sapiens) [compound 489]”, the Peptide exchange is reported as “++++ (>75% = ++++)”.
In the case of “337 (IPTSRVITL; listed as Homo sapiens) [compound 337]”, the Peptide exchange is reported as “++++ (>75% = ++++)”.
With “130 (GAYDKARYL; listed as Homo sapiens) [compound 130]” the Peptide exchange was “++ (>20% = ++)”.
With “153 (QPVHSLCSA; listed as Homo sapiens) [compound 153]” the Peptide exchange was “++++ (>75% = ++++)”.
“133 (LPELPTTLTF; listed as Homo sapiens) [compound 133]” was tested, and the Peptide exchange was “++ (>20% = ++)”.
In the case of “108 (APRGSPPI; listed as Homo sapiens) [compound 108]”, the Peptide exchange is reported as “+++ (>50 = +++)”.
In the case of “373 (LPKPDLPQLI; listed as Homo sapiens) [compound 373]”, the Peptide exchange is reported as “+ (>10% = +)”.
With “32 (APMAPGRSPL; listed as Homo sapiens) [compound 32]” the Peptide exchange was “++++ (>75% = ++++)”.
In the case of “31 (RPGPSDPAA; listed as Homo sapiens) [compound 31]”, the Peptide exchange is reported as “+++ (>50 = +++)”.
With “174 (IPVTSSVTL; listed as Homo sapiens) [compound 174]” the Peptide exchange was “++++ (>75% = ++++)”.
“371 (APRSPGQVTPRGL; listed as Homo sapiens) [compound 371]” was tested, and the Peptide exchange was “+++ (>50 = +++)”.
For “376 (FPQVGRTAL; listed as Homo sapiens) [compound 376]”, the Peptide exchange was “++++ (>75% = ++++)”.
With “343 (RPRPPKVLGL; listed as Homo sapiens) [compound 343]” the Peptide exchange was “+++ (>50 = +++)”.
With “463 (LPTDLFNSVM; listed as Homo sapiens) [compound 463]” the Peptide exchange was “++++ (>75% = ++++)”.
For “282 (AVRLPTPNL; listed as Homo sapiens) [compound 282]”, the Peptide exchange was “++++ (>75% = ++++)”.
For “243 (MARTGGMVVI; listed as Homo sapiens) [compound 243]”, the Peptide exchange was “++ (>20% = ++)”.
In the case of “147 (HVAQPAVVL; listed as Homo sapiens) [compound 147]”, the Peptide exchange is reported as “+++ (>50 = +++)”.
For “245 (GPVPSPLAL; listed as Homo sapiens) [compound 245]”, the Peptide exchange was “++++ (>75% = ++++)”.
For “486 (TPTRPLPSA; listed as Homo sapiens) [compound 486]”, the Peptide exchange was “++ (>20% = ++)”.
“356 (RPFLRLPSL; listed as Homo sapiens) [compound 356]” was tested, and the Peptide exchange was “+++ (>50 = +++)”.
With “40 (FPRTVKHIDAAL; listed as Homo sapiens) [compound 40]” the Peptide exchange was “++++ (>75% = ++++)”.
“190 (RLAHVRARL; listed as Homo sapiens) [compound 190]” was tested, and the Peptide exchange was “+++ (>50 = +++)”.
“79 (GPASDHPSL; listed as Homo sapiens) [compound 79]” was tested, and the Peptide exchange was “+++ (>50 = +++)”.
“44 (SPSQTVQRAV; listed as Homo sapiens) [compound 44]” was tested, and the Peptide exchange was “++++ (>75% = ++++)”.
With “122 (KPRTPFTTAQLL; listed as Homo sapiens) [compound 122]” the Peptide exchange was “++++ (>75% = ++++)”.
“36 (RPFSREMDL; listed as Homo sapiens) [compound 36]” was tested, and the Peptide exchange was “+++ (>50 = +++)”.
For “192 (IPFADVKSF; listed as Homo sapiens) [compound 192]”, the Peptide exchange was “++ (>20% = ++)”.
